Values quoted from earlier work, collected in patent publication US20180369330A1, “METHODS AND COMPOSITIONS USING INTEGRIN-BASED THERAPEUTICS” (La Jolla Institute for Allergy and Immunology, priority 2016, published 2018).

Columns and labels:
αVβ3 = target: T1, αVβ3 (Homo sapiens, UniProt P05106+P06756); conditions: patients with glioblastoma
T1 construct: host or cells: patients with glioblastoma (cited trials)

[1] = patients, clinical trials or clinical use

T1 sequence (P06756 31-889 limits assumed): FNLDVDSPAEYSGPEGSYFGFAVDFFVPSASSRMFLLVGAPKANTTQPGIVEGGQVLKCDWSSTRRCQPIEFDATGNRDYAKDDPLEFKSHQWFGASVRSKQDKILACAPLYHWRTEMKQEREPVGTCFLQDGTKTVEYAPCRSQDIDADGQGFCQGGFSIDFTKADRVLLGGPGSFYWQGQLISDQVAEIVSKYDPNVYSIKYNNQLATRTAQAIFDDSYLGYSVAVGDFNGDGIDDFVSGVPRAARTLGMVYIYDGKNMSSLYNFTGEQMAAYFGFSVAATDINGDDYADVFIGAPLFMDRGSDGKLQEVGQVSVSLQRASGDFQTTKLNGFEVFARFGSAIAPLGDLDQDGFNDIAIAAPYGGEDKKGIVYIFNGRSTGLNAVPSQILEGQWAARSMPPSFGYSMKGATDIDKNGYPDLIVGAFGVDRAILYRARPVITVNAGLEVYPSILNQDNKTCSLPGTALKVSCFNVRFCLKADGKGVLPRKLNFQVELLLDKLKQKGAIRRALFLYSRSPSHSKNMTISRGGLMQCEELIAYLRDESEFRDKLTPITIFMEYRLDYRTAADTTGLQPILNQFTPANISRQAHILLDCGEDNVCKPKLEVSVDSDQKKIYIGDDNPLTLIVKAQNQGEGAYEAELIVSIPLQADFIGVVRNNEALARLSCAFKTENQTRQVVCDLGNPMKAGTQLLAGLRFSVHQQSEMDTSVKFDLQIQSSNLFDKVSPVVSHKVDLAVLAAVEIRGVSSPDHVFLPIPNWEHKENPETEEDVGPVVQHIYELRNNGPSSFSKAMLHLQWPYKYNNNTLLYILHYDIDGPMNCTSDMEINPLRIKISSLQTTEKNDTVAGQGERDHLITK
T1 sequence (P06756 891-1048 limits assumed): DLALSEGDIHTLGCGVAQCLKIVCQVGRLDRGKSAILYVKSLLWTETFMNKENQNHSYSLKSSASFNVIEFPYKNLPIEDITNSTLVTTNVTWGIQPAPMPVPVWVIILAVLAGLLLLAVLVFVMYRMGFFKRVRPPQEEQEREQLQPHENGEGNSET
T1 sequence (P05106 27-788): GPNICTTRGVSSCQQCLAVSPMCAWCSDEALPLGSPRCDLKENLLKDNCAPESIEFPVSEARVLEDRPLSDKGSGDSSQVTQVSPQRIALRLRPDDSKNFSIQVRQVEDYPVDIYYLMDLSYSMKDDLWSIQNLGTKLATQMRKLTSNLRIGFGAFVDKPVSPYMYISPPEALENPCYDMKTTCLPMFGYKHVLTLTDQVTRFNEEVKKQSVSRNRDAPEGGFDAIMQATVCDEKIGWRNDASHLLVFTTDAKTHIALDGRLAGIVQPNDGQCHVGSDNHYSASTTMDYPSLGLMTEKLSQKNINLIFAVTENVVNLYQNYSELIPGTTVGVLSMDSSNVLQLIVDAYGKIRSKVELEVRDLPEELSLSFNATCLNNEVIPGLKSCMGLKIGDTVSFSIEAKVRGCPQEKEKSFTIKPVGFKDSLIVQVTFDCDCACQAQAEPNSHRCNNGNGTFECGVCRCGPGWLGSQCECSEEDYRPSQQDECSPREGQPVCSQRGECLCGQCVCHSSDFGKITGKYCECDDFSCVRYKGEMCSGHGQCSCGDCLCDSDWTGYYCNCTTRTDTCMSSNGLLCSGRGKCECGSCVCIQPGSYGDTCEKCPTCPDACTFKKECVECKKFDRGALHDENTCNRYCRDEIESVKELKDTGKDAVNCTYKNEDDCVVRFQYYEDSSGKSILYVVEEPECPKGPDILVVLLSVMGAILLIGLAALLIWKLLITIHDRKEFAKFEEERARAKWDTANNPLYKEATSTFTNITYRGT

Compound | efficacy in limiting tumor angiogenesis and progression (αVβ3) | progressive multifocal leukoencephalopathy [1]
CC(C)[C@H]1C(=O)N[C@@H](CCCN=C(N)N)C(=O)NCC(=O)N[C@@H](CC(=O)O)C(=O)N[C@H](Cc2ccccc2)C(=O)N1C [Cilengitide] | has not shown efficacy | –
Natalizumab: antibody targeting lymphocyte α4β1 and α4β7 integrins | – | rare but serious complication
vedolizumab: antibody to a combinatorial epitope in α4β7 | – | has not been observed
